# Measurements reported in patent publication US6420532B1, “Method of obtaining compositions comprising Y2 specific compounds” (Synaptic Pharmaceutical Corporation, priority 1994, dated 2002).
# Like-named read-outs stand apart in the source and are kept apart here. Bridges are numbered along the chain shown (N, C = ends). Where no end group is shown, it is not given here. [ ]: non-standard residue; d: D form. Aoc = NCCCCCCCC(=O)O
# B1: porcine NPY26-36 (peptide, UniProt P01304 35-45, looked up)
# peptide: HYINLITRQRY-NH2
# notes: range 26-36; also called NPY26-36, porcine
# B2: porcine PYY13-36 (peptide, UniProt P68005 13-36, looked up)
# peptide: SPEELSRYYASLRHYLNLVTRQRY-NH2
# notes: range 13-36; also called PYY13-36, porcine
# B3: porcine NPY16-36 (peptide, UniProt P01304 25-45, looked up)
# peptide: DLARYYSALRHYINLITRQRY-NH2
# notes: range 16-36; also called NPY16-36, porcine
# B4: C2-NPY, porcine (peptide)
# chain: YCSK[Aoc]RHCINLITRQRY-NH2
# modifications: disulfide 2-8; N-terminus assumed
# SMILES: CC[C@H](C)[C@H](NC(=O)[C@@H]1CSSC[C@H](NC(=O)[C@@H](N)Cc2ccc(O)cc2)C(=O)N[C@@H](CO)C(=O)N[C@@H](CCCCN)C(=O)NCCCCCCCC(=O)N[C@@H](CCCNC(=N)N)C(=O)N[C@@H](Cc2c[nH]cn2)C(=O)N1)C(=O)N[C@@H](CC(N)=O)C(=O)N[C@@H](CC(C)C)C(=O)N[C@H](C(=O)N[C@H](C(=O)N[C@@H](CCCNC(=N)N)C(=O)N[C@@H](CCC(N)=O)C(=O)N[C@@H](CCCNC(=N)N)C(=O)N[C@@H](Cc1ccc(O)cc1)C(N)=O)[C@@H](C)O)[C@@H](C)CC
# B5: porcine NPY22-36 (peptide, UniProt P01304 31-45, looked up)
# peptide: SALRHYINLITRQRY-NH2
# notes: range 22-36; also called NPY22-36, porcine
# B6: porcine NPY20-36 (peptide, UniProt P01304 29-45, looked up)
# peptide: YYSALRHYINLITRQRY-NH2
# notes: range 20-36; also called NPY20-36, porcine
# B7: porcine NPY13-36 (peptide, UniProt P01304 22-45, looked up)
# peptide: PAEDLARYYSALRHYINLITRQRY-NH2
# notes: range 13-36; also called NPY13-36, porcine
# How the values were obtained:
# human Y2 receptor [1] = molecular target: T1, human Y2 receptor (Homo sapiens, UniProt P49146); assay: Intracellular calcium mobilization (Fura-2/AM), stably transfected 293 cells; conditions: pretreatment 100 ng/ml for 24 hours
# T1 sequence (P49146 1-381): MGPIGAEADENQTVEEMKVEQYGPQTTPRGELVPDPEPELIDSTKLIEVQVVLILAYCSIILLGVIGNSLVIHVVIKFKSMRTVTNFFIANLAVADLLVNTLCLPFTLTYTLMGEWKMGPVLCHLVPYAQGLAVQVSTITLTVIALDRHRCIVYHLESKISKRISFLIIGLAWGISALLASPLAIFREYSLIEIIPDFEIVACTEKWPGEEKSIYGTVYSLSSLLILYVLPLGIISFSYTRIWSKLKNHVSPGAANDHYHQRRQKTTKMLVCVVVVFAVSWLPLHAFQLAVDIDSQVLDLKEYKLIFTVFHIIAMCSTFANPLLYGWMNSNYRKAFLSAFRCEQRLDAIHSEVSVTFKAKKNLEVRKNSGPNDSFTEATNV
# [2] = molecular target: T2, CG-13 receptors (human Y2 receptor) (Homo sapiens, UniProt P49146); assay: Competitive displacement of 125I-PYY, membranes of COS-7 cells transiently expressing CG-13 (human Y2); type: binding; conditions: 100 μM Gpp(NH)p, human Y2 in COS-7
# T2 construct: expressed in transfected cells; host or cells: COS-7 (transient, DEAE-dextran)
# T2 sequence (P49146 1-381): T1 sequence (P49146 1-381)
# rat Y2a receptor = molecular target: T3, rat Y2a receptor (Rattus norvegicus, UniProt Q9ERC0); assay: Competitive displacement of 125I-PYY, membranes of COS-7 cells transiently expressing rat Y2a; type: binding; conditions: 100 μM Gpp(NH)p, rat Y2a in COS-7
# T3 construct: expressed in transfected cells; host or cells: COS-7 (transient); 4.0 kb EcoRI genomic fragment of rs5a in EXJ.RH
# T3 sequence (Q9ERC0 1-381): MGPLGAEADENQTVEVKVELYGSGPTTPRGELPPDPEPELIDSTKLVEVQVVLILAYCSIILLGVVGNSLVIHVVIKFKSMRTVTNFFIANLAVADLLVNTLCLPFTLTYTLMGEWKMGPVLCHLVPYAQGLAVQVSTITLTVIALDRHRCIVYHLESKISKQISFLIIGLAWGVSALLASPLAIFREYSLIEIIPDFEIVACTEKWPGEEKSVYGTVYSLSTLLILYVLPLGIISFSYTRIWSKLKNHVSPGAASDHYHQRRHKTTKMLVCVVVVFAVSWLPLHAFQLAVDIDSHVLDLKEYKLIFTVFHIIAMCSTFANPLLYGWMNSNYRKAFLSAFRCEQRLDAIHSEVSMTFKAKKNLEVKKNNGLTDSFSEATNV
# human Y2 receptor [3] = molecular target: T1, human Y2 receptor; assay: 125I-PYY binding to membranes from 293 stable clone (293-hY2-10); design: expressed in transfected cells; conditions: 100 μM Gpp(NH)p, 0.08 nM 125I-PYY, 293 cell membranes
# human Y2 receptor [4] = molecular target: T1, human Y2 receptor; assay: 125I-PYY binding to membranes from stably transfected NIH-3T3 cells (N-hY2-5); design: expressed in transfected cells; conditions: 100 μM Gpp(NH)p, 0.08 nM 125I-PYY, NIH-3T3 cell membranes
# Text: Two positive clones were identified and isolated for further study (293 clone #10 and NIH-3T3 clone #5). […] The data serve to emphasize that the receptor/G protein interactions for a given receptor clone can vary depending upon the resident G proteins in the host cell line (93). Additional factors such as receptor density and receptor reserve can also play a role (92).
# [5] = molecular target: human hippocampal Y2 receptor (clone CG-13) (human) (UniProt P49146); assay: 125I-PYY displacement, COS-7 membranes, Ki from IC50
# [6] = molecular target: human hippocampal Y2 receptor (clone CG-13) (human) (UniProt P49146); assay: as above; remark: listed apart in the source
# human Y1 receptor [7] = molecular target: T4, human Y1 receptor (human, UniProt P25929 1-384); assay: as above
# T4 construct: whole, on cells; transiently expressed in COS-7 cells; membranes used; also called Y1 gene
# T4 sequence (looked up): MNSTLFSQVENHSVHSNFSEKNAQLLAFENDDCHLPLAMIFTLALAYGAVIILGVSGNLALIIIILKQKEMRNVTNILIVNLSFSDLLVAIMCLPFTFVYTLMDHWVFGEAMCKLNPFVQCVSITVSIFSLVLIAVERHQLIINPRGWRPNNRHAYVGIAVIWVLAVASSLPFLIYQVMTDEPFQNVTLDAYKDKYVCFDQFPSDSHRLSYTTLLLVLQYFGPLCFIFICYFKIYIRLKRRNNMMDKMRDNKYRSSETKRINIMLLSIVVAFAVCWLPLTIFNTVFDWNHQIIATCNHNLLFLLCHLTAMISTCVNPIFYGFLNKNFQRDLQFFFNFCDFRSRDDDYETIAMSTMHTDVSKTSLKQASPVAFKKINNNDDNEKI
# human Y4 receptor = molecular target: T5, human Y4 receptor (human, UniProt P50391 1-375); assay: as above
# T5 construct: whole, on cells; transiently expressed in COS-7 cells; membranes used
# T5 sequence (P50391 whole entry): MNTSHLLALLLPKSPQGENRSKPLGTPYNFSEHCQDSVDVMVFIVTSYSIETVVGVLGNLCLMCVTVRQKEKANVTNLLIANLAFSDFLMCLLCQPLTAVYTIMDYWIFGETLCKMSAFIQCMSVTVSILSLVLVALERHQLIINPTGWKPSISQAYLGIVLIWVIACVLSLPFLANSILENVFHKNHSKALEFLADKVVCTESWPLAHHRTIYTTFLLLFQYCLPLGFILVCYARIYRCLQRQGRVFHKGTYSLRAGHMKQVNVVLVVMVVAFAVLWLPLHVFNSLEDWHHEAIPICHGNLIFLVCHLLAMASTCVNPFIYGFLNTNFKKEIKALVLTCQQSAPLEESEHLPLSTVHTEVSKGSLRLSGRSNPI
# Y1 receptor = assay: Whole cell 125I-PYY binding, COS-7 cells transfected with the Y1 gene; design: species or system human; conditions: 100 fold excess of cold peptide
# Procedure: DNA from pools of ≈5000 independent clones was transfected into COS-7 cells by a modification of the DEAE-dextran procedure (17). COS-7 cells were grown in Dulbecco's Modified Eagle Medium (DMEM) supplemented with 10% fetal calf serum, 100 U/mL of penicillin, 100 μg/mL of streptomycin, 2 mM L-glutamine (DMEM-C) at 37° C. in 5% CO2. The cells were seeded one day before transfection at a density of 30,000 cells/cm^2 in 6 well plates (Becton Dickinson, Lincoln Park, N.J.). On the next day, cells were washed twice with Phosphate Buffer Saline (PBS), 400 μl of transfection cocktail was added containing 1/10 of the DNA from each pool and DEAE-dextran (500 μg/mL) in PBS. After a 30 min. incubation at 37° C., 1.6 mL of chloroquine (80 μM in DMEM-C) was added and the cells incubated a further 2.5 hours at 37° C. The media was aspirated from each well and 1 mL of 10% DMSO in DMEM-C added. After 2.5 min. incubation at room temperature, the media was aspirated, each well washed once with 1 mL PBS and the cells incubated 24 hours in DMEM-C. […]
# Since both Y1 and Y2 receptor subtypes are expressed in the hippocampus (2), we analyzed the DNA of positive pools by PCR with Y1 specific primers. […]
# [8] = molecular target: human hippocampal Y2 receptor (clone CG-13) (human) (UniProt P49146); assay: cell-based or functional assay
# [9] = molecular target: rat Y2a receptor (encoded by rs5a) (rat); assay: 125I-PYY displacement, COS-7 membranes, Ki from IC50
# [10] = molecular target: T6, human hippocampal Y2 receptor (clone CG-13) (human, UniProt P49146 1-381); assay: as above
# T6 construct: 381 amino acids; also called CG-13 receptor; human Y2
# T6 sequence: T1 sequence (P49146 1-381)
# [11] = molecular target: T6, human hippocampal Y2 receptor (clone …); assay: as above; remark: listed apart in the source
# human Y1 receptor [12] = molecular target: T4, human Y1 receptor; assay: as above; remark: listed apart in the source
# [13] = molecular target: T6, human hippocampal Y2 receptor (clone …); assay: as above; remark: listed apart in the source
# [14] = molecular target: T7, Y2-like receptor population expressed by human SK-N-Be(2) neuroblastoma cells (human); assay: 125I-PYY displacement, SK-N-Be(2) membranes, Ki from IC50
# T7 chain: T1 sequence (P49146 1-381)
# [15] = molecular target: T8, rat Y2a receptor (encoded by rs5a) (rat); assay: 125I-PYY displacement, COS-7 membranes, Ki from IC50
# T8 chain: T3 sequence (Q9ERC0 1-381)
# [16] = molecular target: T6, human hippocampal Y2 receptor (clone …); assay: cell-based or functional assay
# [17] = molecular target: T6, human hippocampal Y2 receptor (clone …); assay: 125I-PYY displacement binding assay (Table 9, binding column)
# human Y1 receptor [18] = molecular target: T4, human Y1 receptor; assay: 125I-PYY displacement, COS-7 membranes, Ki from IC50; remark: listed apart in the source
molecule,measurement,setting,value
pertussis toxin,decrease of the response to 300 nM human PYY,human Y2 receptor [1],93%
Nc1nc2c(ncn2[C@@H]2O[C@H](COP(=O)(O)OP(=O)(O)NP(=O)(O)O)[C@@H](O)[C@H]2O)c(=O)[nH]1 [Gpp(NH)p],decrease of specific binding of 125I-PYY,[2],4%
same,decrease of specific binding of 125I-PYY,rat Y2a receptor,23%
same,reduction of specific binding of 125I-PYY,human Y2 receptor [3],32%
same,reduction of specific binding of 125I-PYY,human Y2 receptor [4],6%
human NPY free acid (from UniProt P01303 29-64) (peptide),Ki,[5],> 300 nM
same,Ki,[6],> 1000 nM
"PP, avian (peptide)",Ki,human Y1 receptor [7],400 nM
same,Ki,[6],> 1000 nM
same,Ki,human Y4 receptor,7 nM
"[Leu^31,Pro^34]NPY: analog of NPY modified at residues 31 and 34, species not stated",inhibition of binding of 125I-PYY,Y1 receptor,totally inhibited
"PP, salmon (peptide)","EC50, inhibition of forskolin-stimulated cAMP accumulation, stably transfected 293 cells",[8],0.07 nM
same,Ki,human Y1 receptor [7],0.2 nM
same,Ki,[9],0.17 nM
same,Ki,human Y4 receptor,3.2 nM
B1,Ki,[10],210 nM
same,Ki,[11],380 nM
same,Ki,human Y1 receptor [12],> 1000 nM
same,Ki,[13],380 nM
same,Ki,[14],70 nM
"APSEPHHPGDQATQDQLAQYYSDLYQYITFVTRPRF-NH2 (also called frog PP) [PP, frog]",Ki,[11],> 1000 nM
same,Ki,human Y1 receptor [12],96 nM
same,Ki,human Y4 receptor,61 nM
B2,Ki,[10],1.5 nM
same,Ki,[15],1.5 nM
B3,"EC50, inhibition of forskolin-stimulated cAMP accumulation, stably transfected 293 cells",[16],1.8 nM
same,Ki,[10],3.8 nM
same,Ki,[11],3.6 nM
same,Ki,human Y4 receptor,54 nM
same,Ki,[14],5 nM
same,Ki,[17],3.6 nM
"APLEPMYPGDYATHEQRAQYETQLRRYINTLTRPRY-NH2 (peptide, UniProt P06303 30-65, looked up, mature; also called rat PP) [PP, rat]",Ki,[11],> 1000 nM
same,Ki,human Y1 receptor [12],460 nM
same,Ki,human Y4 receptor,0.18 nM
same,Ki,[13],> 1000 nM
B4,"EC50, inhibition of forskolin-stimulated cAMP accumulation, stably transfected 293 cells",[16],0.14 nM
same,Ki,[11],3.5 nM
same,Ki,human Y1 receptor [12],73 nM
same,Ki,human Y4 receptor,120 nM
same,Ki,[17],3.5 nM
B5,"EC50, inhibition of forskolin-stimulated cAMP accumulation, stably transfected 293 cells",[16],2.3 nM
same,Ki,[10],4.6 nM
same,Ki,human Y1 receptor [18],170 nM
same,Ki,[11],18 nM
same,Ki,[14],3.2 nM
same,Ki,[17],18 nM
"APLEPEYPGDNATPEQMAQYAAELRRYINMLTRPRY-NH2 (peptide, UniProt P01302 30-65, looked up, mature; also called bovine PP) [PP, bovine]",Ki,[11],830 nM
same,Ki,human Y1 receptor [12],240 nM
same,Ki,human Y4 receptor,0.05 nM
same,Ki,[13],> 825 nM
B6,Ki,human Y1 receptor [18],62 nM
same,Ki,human Y1 receptor [12],63 nM
same,Ki,human Y4 receptor,120 nM
"YPSKPDNPGEDAPAEDMARYYSAL-NH2 (peptide, UniProt P01303 29-52, looked up, range 1-24) [NPY1-24 amide, human]",Ki,[11],> 1000 nM
B7,Ki,human Y4 receptor,38 nM
same,Ki,[14],1.8 nM
